Results reported in US20080146500A1, “Selective Vpac2 Receptor Peptide Agonists” (priority 2004, published 2008).
Ends that are not written are not given here. * marks the point of attachment. Hexanoyl = CCCCCC(=O)*

Assays:
human VPAC1 = biological target: T1, human VPAC1 (Homo sapiens, UniProt P32241); assay: Filter binding assay, membranes from cells transiently transfected with human VPAC1, 125I-labeled VIP tracer; details: read-out: Human receptor binding (IC50; nM) VPAC1
T1 construct: expressed in transfected cells
T1 sequence (P32241 31-457): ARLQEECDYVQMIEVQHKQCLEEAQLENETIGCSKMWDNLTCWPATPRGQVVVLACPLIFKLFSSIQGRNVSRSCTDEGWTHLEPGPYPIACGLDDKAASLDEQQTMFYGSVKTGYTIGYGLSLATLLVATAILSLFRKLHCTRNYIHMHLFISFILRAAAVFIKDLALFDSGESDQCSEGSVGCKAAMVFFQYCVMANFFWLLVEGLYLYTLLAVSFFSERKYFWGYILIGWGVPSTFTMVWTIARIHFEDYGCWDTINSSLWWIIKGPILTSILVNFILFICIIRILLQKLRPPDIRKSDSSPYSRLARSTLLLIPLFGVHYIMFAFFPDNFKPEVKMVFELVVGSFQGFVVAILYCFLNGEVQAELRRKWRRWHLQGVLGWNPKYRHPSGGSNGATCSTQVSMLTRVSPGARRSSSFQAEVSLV
Method: (§1) For this assay, the solutions and equipment include:
(§2) Presoak solution: 0.5% Polyethyleneamine in Aqua dest.
(§3) Buffer for flushing filter plates: 25 mM HEPES pH 7.4
(§4) Blocking buffer: 25 mM HEPES pH 7.4; 0.2% protease free BSA
(§5) Assay buffer: 25 mM HEPES pH 7.4; 0.5% protease free BSA
(§6) Dilution and assay plate: PS-Microplate, U form
(§7) Filtration Plate Multiscreen FB Opaque Plate; […] Type B Glasfiber filter
(§8) In order to prepare the filter plates, the presoak solution is aspirated by vacuum filtration. The plates are flushed twice with 200 μL flush buffer. 200 μL blocking buffer is added to the filter plate. The filter plate is then incubated with 200 μL presoak solution for 1 hour at room temperature.
(§9) The assay plate is filled with […] (2.5 μg) suspended in assay buffer, 25 μL compound (agonist) in assay buffer, and 25 μL tracer (about 40000 cpm) in assay buffer. The filled plate is incubated for 1 hour with shaking.
(§10) The transfer from assay plate to filter plate is conducted. The blocking buffer is aspirated by vacuum filtration and washed two times with flush buffer. 90 μL is transferred from the assay plate to the filter plate. The 90 μL transferred from assay plate is aspirated and washed three times with 200 μL flush buffer. The plastic support is removed. It is dried for 1 hour at 60° C. 30 μL Microscint is added. The count is performed.
(§11) Values reported are single results or the mean of two or more independent runs.

human PAC1 = biological target: T2, human PAC1 (Homo sapiens, UniProt P41586); assay: Filter binding assay, membranes from cells transiently transfected with human PAC1, 125I-labeled PACAP-27 tracer; details: read-out: Human receptor binding (IC50; nM) PAC1
T2 construct: expressed in transfected cells
T2 sequence (P41586 21-468): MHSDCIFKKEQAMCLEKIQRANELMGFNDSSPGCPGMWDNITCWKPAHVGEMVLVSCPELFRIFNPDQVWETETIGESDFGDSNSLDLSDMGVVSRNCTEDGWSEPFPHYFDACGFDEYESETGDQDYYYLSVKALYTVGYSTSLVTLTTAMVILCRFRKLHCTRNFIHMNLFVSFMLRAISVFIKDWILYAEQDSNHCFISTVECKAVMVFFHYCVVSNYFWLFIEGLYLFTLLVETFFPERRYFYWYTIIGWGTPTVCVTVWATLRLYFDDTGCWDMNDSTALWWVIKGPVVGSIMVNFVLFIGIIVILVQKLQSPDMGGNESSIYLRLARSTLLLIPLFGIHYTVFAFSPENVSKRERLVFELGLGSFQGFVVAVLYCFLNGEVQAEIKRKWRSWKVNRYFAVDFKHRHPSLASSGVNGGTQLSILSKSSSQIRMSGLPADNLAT
Method: as §1, §2, §3, §4, §5, §6, §7, §8, §9, §10, §11

Normal Wistar rats = assay: Intravenous glucose tolerance test (IVGTT), serum glucose and insulin; type: in vivo, rat; details: Dose = 10 μg/kg iv, time between glucose & compound 0 h
Method: Intravenous glucose tolerance test (IVGTT): Normal Wistar rats are fasted overnight and are anesthetized prior to the experiment. A blood sampling catheter is inserted into the rats. The compound is given in the jugular vein. Blood samples are taken from the carotid artery. A blood sample is drawn immediately prior to the injection of glucose along with the compound. After the initial blood sample, glucose mixed with compound is injected intravenously (i.v.). Compound may also be injected intravenously or subcutaneously prior to the glucose challenge. A glucose challenge of 0.5 g/kg body weight is given, injecting a total of 1.5 mL vehicle with glucose and agonist per kg body weight. The peptide concentrations are varied to produce the desired dose in μg/kg. Blood samples are drawn at 2, 4, 6 and 10 minutes after giving glucose. The control group of animals receives the same vehicle along with glucose, but with no compound added. In some instances, a 30 minute post-glucose blood sample is drawn. Aprotinin is added to the blood sample (250-500 kIU/ml blood). The serum is then analyzed for glucose and insulin using standard methodologies.
The assay uses a formulated and calibrated peptide stock in PBS. Normally, this stock is a prediluted 100 μM stock. However, a more concentrated stock with approximately 1 mg agonist per 1 mL is used. The specific concentration is always known. Variability in the maximal response is mostly due to variability in the vehicle dose.

[1] = biological target: T3, human VPAC2 receptor (human), P41587; assay: cell-based or functional assay
T3 chain: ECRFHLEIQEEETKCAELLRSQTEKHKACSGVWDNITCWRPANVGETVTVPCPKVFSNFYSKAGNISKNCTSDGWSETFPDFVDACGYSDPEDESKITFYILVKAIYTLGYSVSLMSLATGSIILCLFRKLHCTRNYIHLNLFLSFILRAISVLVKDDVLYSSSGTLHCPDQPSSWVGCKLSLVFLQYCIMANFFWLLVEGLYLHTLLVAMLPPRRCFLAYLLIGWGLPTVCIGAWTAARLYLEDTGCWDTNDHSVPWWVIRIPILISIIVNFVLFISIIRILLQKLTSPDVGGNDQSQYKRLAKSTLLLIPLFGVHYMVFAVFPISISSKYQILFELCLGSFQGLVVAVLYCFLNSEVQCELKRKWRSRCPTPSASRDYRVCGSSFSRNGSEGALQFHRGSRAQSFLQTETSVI

[2] = biological target: T4, rat VPAC1 receptor (rat), P30083; assay: cell-based or functional assay
T4 chain: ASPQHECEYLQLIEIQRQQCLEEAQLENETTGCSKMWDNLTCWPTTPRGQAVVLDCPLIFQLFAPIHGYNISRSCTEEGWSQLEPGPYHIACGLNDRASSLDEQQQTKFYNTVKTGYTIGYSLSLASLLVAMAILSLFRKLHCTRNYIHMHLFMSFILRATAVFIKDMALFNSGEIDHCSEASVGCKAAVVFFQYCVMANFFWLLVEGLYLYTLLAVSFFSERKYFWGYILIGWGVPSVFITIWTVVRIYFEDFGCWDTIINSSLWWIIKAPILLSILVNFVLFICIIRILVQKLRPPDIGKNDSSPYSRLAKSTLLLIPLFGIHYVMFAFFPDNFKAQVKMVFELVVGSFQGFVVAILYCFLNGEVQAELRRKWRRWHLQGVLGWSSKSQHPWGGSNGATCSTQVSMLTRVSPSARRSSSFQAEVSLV

[3] = biological target: T5, rat VPAC2 receptor (rat), P35000; assay: cell-based or functional assay
T5 chain: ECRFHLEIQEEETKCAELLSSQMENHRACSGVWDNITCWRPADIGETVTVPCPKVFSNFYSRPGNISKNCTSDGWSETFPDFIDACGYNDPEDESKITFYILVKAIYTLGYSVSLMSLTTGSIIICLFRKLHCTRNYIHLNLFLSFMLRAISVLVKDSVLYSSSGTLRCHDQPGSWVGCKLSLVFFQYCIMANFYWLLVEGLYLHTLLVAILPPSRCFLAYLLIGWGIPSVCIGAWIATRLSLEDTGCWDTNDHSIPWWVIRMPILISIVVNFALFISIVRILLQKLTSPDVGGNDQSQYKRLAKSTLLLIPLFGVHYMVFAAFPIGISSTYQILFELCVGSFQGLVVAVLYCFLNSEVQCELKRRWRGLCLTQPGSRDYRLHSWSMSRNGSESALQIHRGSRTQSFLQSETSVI

[4] = biological target: T6, human VPAC1 receptor (human), P32241; assay: filter binding, VPAC1 membranes, 125I-VIP tracer
T6 chain: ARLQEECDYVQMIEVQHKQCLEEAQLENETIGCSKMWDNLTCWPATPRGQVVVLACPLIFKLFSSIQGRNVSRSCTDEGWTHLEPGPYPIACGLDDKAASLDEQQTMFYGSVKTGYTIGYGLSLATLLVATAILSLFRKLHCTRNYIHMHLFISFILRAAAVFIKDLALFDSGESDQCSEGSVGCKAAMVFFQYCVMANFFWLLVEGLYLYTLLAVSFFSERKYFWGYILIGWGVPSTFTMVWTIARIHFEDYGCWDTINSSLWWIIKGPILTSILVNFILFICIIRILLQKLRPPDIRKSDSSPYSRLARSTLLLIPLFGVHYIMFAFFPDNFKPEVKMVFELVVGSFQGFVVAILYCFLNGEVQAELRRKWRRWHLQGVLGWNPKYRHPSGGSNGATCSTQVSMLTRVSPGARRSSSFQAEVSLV

[5] = biological target: T3, human VPAC2 receptor (human), P41587; assay: filter binding, VPAC2 membranes, 125I-VIP tracer
human VPAC2 receptor [6] = biological target: T7, human VPAC2 receptor (human, UniProt P41587 24-438); assay: cell-based or functional assay
T7 sequence (looked up): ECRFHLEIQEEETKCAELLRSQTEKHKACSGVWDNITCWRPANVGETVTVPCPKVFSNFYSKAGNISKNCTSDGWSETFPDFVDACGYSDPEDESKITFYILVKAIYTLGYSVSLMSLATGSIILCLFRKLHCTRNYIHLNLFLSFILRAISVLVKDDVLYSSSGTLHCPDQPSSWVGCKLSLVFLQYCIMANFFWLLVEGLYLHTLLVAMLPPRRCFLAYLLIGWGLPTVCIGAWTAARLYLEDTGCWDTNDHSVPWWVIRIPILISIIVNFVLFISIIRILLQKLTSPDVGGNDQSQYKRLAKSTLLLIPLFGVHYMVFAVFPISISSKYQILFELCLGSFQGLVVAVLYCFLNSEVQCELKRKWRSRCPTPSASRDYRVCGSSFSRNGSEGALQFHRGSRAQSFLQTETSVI

human VPAC2 receptor [7] = biological target: T7, human VPAC2 receptor; assay: filter binding, VPAC2 membranes, 125I-VIP tracer
Method: The assay plate is filled with 25 mL assay buffer, 25 mL membranes (2.5 μg) suspended in assay buffer, 25 μL compound (agonist) in assay buffer, and 25 μL tracer (about 40000 cpm) in assay buffer. The filled plate is incubated for 1 hour with shaking.

Question: For “C6-HSDAVFTDNYTRLLAKLALQKYLQSIKNKRYGGPSSGAPPPC(PEG40K) (Hexanoyl-HSDAVFTDNYTRLLAKLALQKYLQSIKNKRYGGPSSGAPPPC(PEG 40 kDa)) [Agonist P190, PEGylated peptide obtained from P164 and methoxy-PEG2-MAL-40K]”, which IC50 (human VPAC1) is on record?
Answer: Its IC50 is greater than 3000 nM.

Question: And the IC50 (human PAC1)?
Answer: Its IC50 is greater than 25000 nM.

Question: What about the “% increase AUC (insulin, 0-10 min after glucose)” value (Normal Wistar rats) of the same molecule?
Answer: Its value is “+73%”.

Question: For HSDAVFTDNYTRLRKQVAAKKYLQSIKNKRYGGPSSGAPPPC (modifications not checked) [P137], which cAMP generation (EC50), Alpha screen [1] is on record?
Answer: The cAMP generation (EC50), Alpha screen was 8.31 nM.

Question: What about the cAMP generation (EC50), DiscoveRx, CHO-PO cells [2] of the same molecule?
Answer: Its cAMP generation (EC50), DiscoveRx, CHO-PO cells is 29.7 nM.

Question: What about the cAMP generation (EC50), DiscoveRx, CHO-PO cells [3] of the same molecule?
Answer: Its cAMP generation (EC50), DiscoveRx, CHO-PO cells is 8 nM.

Question: What about the IC50 [4] of the same molecule?
Answer: Its IC50 is 853 nM.

Question: What about the IC50 [5] of the same molecule?
Answer: Its IC50 is 0.64 nM.

B1: P190 (peptide)
peptide: Hexanoyl-HSDAVFTDNYTRLLAKLALQKYLQSIKNKRYGGPSSGAPPPC(PEG 40 kDa)
notes: T0013 drops Thr 11 (print error); also called PEGylated P164
Question: With B1 as the molecule, how does the “cAMP generation (EC50), Alpha screen” value (human VPAC2 receptor [6]) read?
Answer: The value was 2.14 nM.

Question: And the IC50 (human VPAC2 receptor [7])?
Answer: The IC50 was 4.44 nM.

Question: With HSDAVFTDNYTRLRRQVAAKRYLQSIRNGGPSSGAPPPS (modifications not checked) [P219] as the molecule, how does the cAMP generation (EC50), Alpha screen [1] read?
Answer: The cAMP generation (EC50), Alpha screen was 25.5 nM.

Question: What about the IC50 [5] of the same molecule?
Answer: The IC50 was 67.9 nM.

Question: HSDAVFTDNYTRLRKQVAARRYLQSIRNGGPSSGAPPPS (modifications not checked) [P245] was tested. Which cAMP generation (EC50), Alpha screen [1] did it give?
Answer: Its cAMP generation (EC50), Alpha screen is 450 nM.

Question: What about the IC50 [5] of the same molecule?
Answer: The IC50 was 921 nM.

Question: For HSDAVFTDNYTRLRRQVAARKYLQSIRNGGPSSGAPPPS (modifications not checked) [P247], which cAMP generation (EC50), Alpha screen [1] is on record?
Answer: The cAMP generation (EC50), Alpha screen was 133 nM.

Question: And the IC50 [5]?
Answer: Its IC50 is 353 nM.
